What was measured:
[1] = molecular target: Biotinylated human BSSL (human) (UniProt P19835); test: flow cytometry displacement assay; 0.5 ug antibody, 1 ug b-hBSSL
[2] = molecular target: Biotinylated human BSSL (human) (UniProt P19835); test: flow cytometry displacement assay; 1.0 ug antibody, 1 ug b-hBSSL
[3] = molecular target: Biotinylated human BSSL (human) (UniProt P19835); test: flow cytometry displacement assay; 1.5 ug antibody, 1 ug b-hBSSL
[4] = molecular target: Biotinylated human BSSL (human) (UniProt P19835); test: flow cytometry displacement assay; 2.0 ug antibody, 1 ug b-hBSSL
[5] = molecular target: Biotinylated human BSSL (human) (UniProt P19835); test: flow cytometry displacement assay; 3.0 ug antibody, 1 ug b-hBSSL

Biotinylated human BSSL (human), sequence (P19835 other isoform, or with tags, fused parts or gaps): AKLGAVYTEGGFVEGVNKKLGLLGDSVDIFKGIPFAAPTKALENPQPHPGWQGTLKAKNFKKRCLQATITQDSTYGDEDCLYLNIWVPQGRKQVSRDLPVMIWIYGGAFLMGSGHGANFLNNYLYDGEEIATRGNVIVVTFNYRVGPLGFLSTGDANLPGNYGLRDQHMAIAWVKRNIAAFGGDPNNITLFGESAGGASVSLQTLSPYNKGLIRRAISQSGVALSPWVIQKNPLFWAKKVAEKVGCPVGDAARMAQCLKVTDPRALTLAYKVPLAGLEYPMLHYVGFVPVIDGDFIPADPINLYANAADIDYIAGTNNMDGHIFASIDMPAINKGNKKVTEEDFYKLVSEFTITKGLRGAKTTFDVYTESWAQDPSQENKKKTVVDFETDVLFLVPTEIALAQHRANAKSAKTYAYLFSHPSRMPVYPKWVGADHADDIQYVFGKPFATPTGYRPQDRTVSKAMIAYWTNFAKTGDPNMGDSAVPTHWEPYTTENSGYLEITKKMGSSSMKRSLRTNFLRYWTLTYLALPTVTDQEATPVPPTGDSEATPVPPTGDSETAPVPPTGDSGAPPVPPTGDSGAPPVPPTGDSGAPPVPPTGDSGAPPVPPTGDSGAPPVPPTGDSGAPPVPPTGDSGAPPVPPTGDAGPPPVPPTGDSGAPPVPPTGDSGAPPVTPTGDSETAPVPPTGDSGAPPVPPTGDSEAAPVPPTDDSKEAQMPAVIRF

Substance: anti-human alpha-synuclein mlgG1 (antibody)
- percentage reduction of b-hBSSL binding to CD14+ monocytes [1]: -8%
- percentage reduction of b-hBSSL binding to CD14+ monocytes [2]: -2%
- percentage reduction of b-hBSSL binding to CD14+ monocytes [3]: -4%
- percentage reduction of b-hBSSL binding to CD14+ monocytes [4]: -1%
- percentage reduction of b-hBSSL binding to CD14+ monocytes [5]: -7%

From patent US20220267469A1
